{"source": "paper PMC6585436", "about": "(Chemistry & biology, 2015)", "target": "MtMscL CΔ48 C-GFP (pet15b-MtMscL CΔ(103–151)-S-TEV-GFP-6xHis) (Mycobacterium tuberculosis) (UniProt A5U127)", "test": "native MS", "data": [{"substance": "MtMscL CΔ48 C-GFP (pet15b-MtMscL CΔ(103–151)-S-TEV-GFP-6xHis) (from UniProt A5U127 1-102) (domain or fragment)", "values": [{"measurement": "stoichiometry N", "value": 5}]}]}
